The results in this text go back to patent US20210324096A1 (Genmab, published 2021).

Experiment [1] concerns the target T1, murine (Mus musculus) DR5, full-length (mouse, UniProt Q9QZM4 53-381).
T1 construct: also called mouse DR5
The experiment can be described thus: flow cytometry on transfected CHO cells (FIG. 5D). Background: Flow cytometry measures light scatter and fluorescence of single cells or particles in a stream.

Experiment [2] concerns the target T2, human DR5 (death receptor 5), full-length (human, UniProt O14763 56-440).
T2 construct: also called TRAILR2; CD262
Briefly: flow cytometry on HCT 116 cells.

In experiment [3] the target is T3, DR5ECD-FcHistag (human).
T3 construct: 453 is the counted length of the printed entry; also called DR5ECD-FcHisCtag; DRSECD-FcHistag
The experiment can be described thus: crossblock sandwich ELISA, antibody coated, competitor IgG1-hDR5-01-E430G. (ELISA stands for enzyme-linked immunosorbent assay.)

The target of experiment [4] is T4, cynomolgus monkey DR5 protein with deletion of amino acids 185-213 and death domain loss-of-function mutation … (cynomolgus monkey (Macaca fascicularis)).
T4 construct: Transiently expressed on CHO cells; also called Cyno DR5Mfdel-K420N; cynomolgus DR5-transfected CHO
T4 chain: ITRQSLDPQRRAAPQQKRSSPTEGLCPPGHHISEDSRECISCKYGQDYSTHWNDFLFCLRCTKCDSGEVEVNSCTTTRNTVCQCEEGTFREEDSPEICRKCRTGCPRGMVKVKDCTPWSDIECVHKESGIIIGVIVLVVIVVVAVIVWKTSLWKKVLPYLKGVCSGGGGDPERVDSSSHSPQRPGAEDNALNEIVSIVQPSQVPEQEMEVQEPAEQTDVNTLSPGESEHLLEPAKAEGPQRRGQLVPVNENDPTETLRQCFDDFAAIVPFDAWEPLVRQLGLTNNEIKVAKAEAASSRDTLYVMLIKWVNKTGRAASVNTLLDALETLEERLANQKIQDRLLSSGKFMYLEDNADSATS
The experiment can be described thus: flow cytometry on cynomolgus DR5-transfected CHO cells, four experiments (SD 0.084).

In experiment [5] the target is T3, DR5ECD-FcHistag. The experiment can be described thus: crossblock sandwich ELISA, antibody coated, competitor IgG1-DR5-CONA-K409R.
Experiment [6] concerns the target T3, DR5ECD-FcHistag. Briefly: crossblock sandwich ELISA, antibody coated, competitor IgG1-DR5-chTRA8-F405L.

B1: IgG1-hDR5-05-F405L (antibody, name in EU numbering)
heavy: not shown
light: DIQLTQSPSSLSASVGDRVTITCSASSSVSYMYWYQQKPGKAPKPWIYRTSNLASGVPSRFSGSGSGTDFTLTISSLQPEDFATYYCQQYHSYPPTFGGGTKVEIKRTVAAPSVFIFPPSDEQLKSGTASVVCLLNNFYPREAKVQWKVDNALQSGNSQESVTEQDSKDSTYSLSSTLTLSKADYEKHKVYACEVTHQGLSSPVTKSFNRGEC
notes: IgG1,kappa; F405L is counted by EU numbering, not on the entry; also called humanized DR5-05
B1: the binding result in experiment [1] is given as “no binding (tested: 10 µg/mL)”.

B2: IgG1-hDR5-05-N55D-F405L (antibody, V domains shown)
VH: QVQLVQSGAEVKKPGASVKVSCKASGFNIKDTHMHWVRQAPGQRLEWIGRIDPADGNTEYDQKFQGRVTITVDTSASTAYMELSSLRSEDTAVYYCARWGTNVYFAYWGQGTLVTVSS
VL: DIQLTQSPSSLSASVGDRVTITCSASSSVSYMYWYQQKPGKAPKPWIYRTSNLASGVPSRFSGSGSGTDFTLTISSLQPEDFATYYCQQYHSYPPTFGGGTKVEIKR
notes: IgG1,kappa; deamidation-mimicking variant
As to B2, the binding result in experiment [2] was “binds”.

B3: IgG1-hDR5-05-E430G (antibody)
heavy: not shown
light: B1 light
notes: IgG1,kappa
For B3, in the experiment with DR5ECD-FcHistag [3], the binding result was “binds”. Besides, the EC50 – broadly, the concentration needed to bring the measured effect to its halfway point – in experiment [4] turned out to be 0.17 µg/mL.

B4: IgG1-DR5-chTRA8-F405L (antibody, name in EU numbering, V domains shown)
VH: EVMLVESGGGLVKPGGSLKLSCAASGFTFSSYVMSWVRQTPEKRLEWVATISSGGSYTYYPDSVKGRFTISRDNAKNTLYLQMSSLRSEDTAMYYCARRGDSMITTDYWGQGTTLTVSS
VL: DIVMTQSHKFMSTSVGDRVSITCKASQDVGTAVAWYQQKPGQSPKLLIYWASTRHTGVPDRFTGSGSGTDFTLTISNVQSEDLADYFCQQYSSYRTFGGGTKLEIKR
notes: F405L is counted by EU numbering; also called IgG1-chTRA8-F405L
On to B4, for which the binding result with DR5ECD-FcHistag [5] was “binds”.

B5: IgG1-DR5-CONA-K409R (antibody, V domains shown)
VH: QVQLQESGPGLVKPSQTLSLTCTVSGGSISSGDYFWSWIRQLPGKGLECIGHIHNSGTTYYNPSLKSRVTISVDTSKKQFSLRLSSVTAADTAVYYCARDRGGDYYYGMDVWGQGTTVTVSS
VL: EIVLTQSPGTLSLSPGERATLSCRASQGISRSYLAWYQQKPGQAPSLLIYGASSRATGIPDRFSGSGSGTDFTLTISRLEPEDFAVYYCQQFGSSPWTFGQGTKVEIK
notes: Expressed as IgG1,kappa with K409R (EU); also called IgG1-CONA-K409R; conatumumab variant
Take B5: the binding result with DR5ECD-FcHistag [6] is recorded as “binds”.
